In patent publication US12173330B2, “Method for producing hydroxy-L-pipecolic acid” (API CORPORATION, priority 2015, dated 2024):

B1: McPH: amino acid hydroxylase from Micromonospora chokoriensis, GenBank WP_030487089, SEQ ID NO: 2 (protein, listed as Micromonospora chokoriensis)
chain: MRTHFVGEVALDLARLEADLATCRSLEWSEAYSDYVFGGSWKSCMLWAPGGDAGDGVVTDYAYDRSAGFTPHAERLPYLAELIRETADLDRLNFARLALVTNSVIIPHRDLLELSDLPDEARNEHRMHIPLATNDNCFFNEDNVVYRMRRGEVWFLDASRIHSVAVLTAQPRIHLMLDFVDTPGAGSFTRVAGGGVEAGIPVDRIVTRPPLGDDERADLFGVAPLLSMDTFDEVFSIVIKKHFRRDGGSDFVWDTMLELAAKSPDPAVLPHTEELRKHYTLDRSA
B2: McPHm11: McPH triple mutant F5Y, C23A, D282E; SEQ ID NO: 20 (protein, listed as Micromonospora chokoriensis)
chain: MRTHYVGEVALDLARLEADLATARSLEWSEAYSDYVFGGSWKSCMLWAPGGDAGDGVVTDYAYDRSAGFTPHAERLPYLAELIRETADLDRLNFARLALVTNSVIIPHRDLLELSDLPDEARNEHRMHIPLATNDNCFFNEDNVVYRMRRGEVWFLDASRIHSVAVLTAQPRIHLMLDFVDTPGAGSFTRVAGGGVEAGIPVDRIVTRPPLGDDERADLFGVAPLLSMDTFDEVFSIVIKKHFRRDGGSDFVWDTMLELAAKSPDPAVLPHTEELRKHYTLERSA
B3: CaPH: L-proline cis-4-hydroxylase from Catenulispora acidiphila NBRC102108, GenBank WP_012787640, SEQ ID NO: 6 (protein, listed as Catenulispora acidiphila)
chain: MRTQYVAALELDEGRLAKDLETSASFNYSEAYSNYLIGGPWKSAMLYSAGGDAGDGLLTDYDYRQSSDFTDYGRQMPYLQELISTSVDLSRLTFVRLARFAKSVIVPHRDFLELEEIPEDKRSAHRLHIPLATHEECFFSEDNVVYRMRAGELWYFDASRIHSVVSFAEEPRIHLIFDFADRPGAGSLVTVPGEPEGAGVPAASAVDRPQLSDAERAALARLADVLTMDTFSEIFSVLVKKHFRRDGGEHFVWDTLTALARACPDPAVLPHTQELRRYFTLERPSGSGQA

Key:
[1] = Reactivity comparison of L-pipecolic acid 5-hydroxylases, substrate L-proline (Example 4); details: for Relative activity, Substrate: L-proline (hydroxy-L-proline-producing activity, 100 = hydroxy-L-pipecolic acid-producing activity): 10 mmol/L substrate, 30° C., 30 minutes; for hydroxy-L-proline detected from the reaction solution: Example 4, 10 mmol/L L-proline, in words
Method: (§1) The detection of the products was based on the absorbance at a wavelength of 340 nm.
(§2) The activity values were evaluated by the amount of a product per gram of total protein (U/g-protein).

[2] = Production of hydroxy-L-pipecolic acids by culture of recombinant E. coli expressing the hydroxylase (Example 5); assay type: cell-based, E. coli BL21 (DE3); details: for Accumulation of (4S)-hydroxy-L-proline: 120 hours; for Accumulation amount of (4S)-hydroxy-L-proline / Accumulation amount of (5S)-Hydroxy-L-pipecolic acid / Accumulation amount of L-pipecolic acid: after 120 hours, 20 mmol/L L-pipecolic acid in medium, 30° C.
[3] = Reactivity comparison of L-pipecolic acid 5-hydroxylases, substrate L-pipecolic acid (Example 4); details: 10 mmol/L substrate, 30° C., 30 minutes; hydroxy-L-pipecolic acid-producing activity set to 100
Method: as §1, §2

[4] = Catalytic efficiency (kcat/Km) of L-pipecolic acid hydroxylases with L-proline (Example 3); assay type: biochemical; details: for hydroxy-L-proline detected from the reaction solution: L-proline as substrate, Example 3, in words
Method: Each of the obtained recombinant E. coli strains in a volume of 0.6 mL was recovered by centrifugation and was suspended in 0.5 mL of 50 mmol/L MES (2-morpholinoethanesulfonic acid) buffer at pH 6. The container containing the suspension was placed in ice-water bath to perform sonication and then spun at 12,000 rpm. The obtained supernatant was used as an enzyme solution in Example 3.
Subsequently, 0.05 mL of 1 mol/L hydrochloric acid was added to stop the reaction.
The reaction using L-proline as a substrate was carried out under the same conditions as in the above reaction using L-pipecolic acid.
Then, each reaction solution was treated using 1-fluoro-2,4-dinitrophenyl-5-L-alaninamide (FDAA) (manufactured by Tokyo Chemical Industry Co., Ltd.) according to a method as described below, to obtain a FDAA-derivative of a hydroxy-L-pipecolic acid or hydroxy-L-proline included in each reaction solution.
To the reaction solution after stopping the reaction, 0.05 mL of 1 mol/L sodium hydroxide was added for neutralization. After centrifuging the solution at 12,000 rpm, 15 μL of 0.5 mol/L borate buffer (pH 9) was added to 15 μL of the obtained supernatant, followed by further addition of 30 μL of 20 mmol/L FDAA solution in acetone and incubation at 40° C. for one hour. Subsequently, 10 μL of 1 mol/L hydrochloric acid was added to stop the derivatization reaction. The resulting solution was diluted by adding 80 μL of methanol, and then centrifuged at 12,000 rpm. The obtained supernatant was used as a FDAA derivative solution.
The amount of produced hydroxy-L-pipecolic acid or hydroxy-L-proline was analyzed with UPLC-MS (manufactured by Waters Co.).
An aliquot containing 5 μg of total protein was taken from each enzyme solution obtained in Example 2, loaded on each lane, and then electrophoresed on polyacrylamide gel. The obtained electrophoretogram was analyzed using the image analysis software Image Lab3.0 (manufactured by Bio-Rad Laboratories, Inc.) to determine the content of each hydroxylase. A carbonic anhydrase (manufactured by Sigma-Aldrich Co. LLC) was used as a quantification reference. The content of a hydroxylase of interest was calculated from the signal intensity of the enzyme of interest, based on the signal intensities of bands corresponding to 200 ng, 400 ng and 600 ng of the quantification reference provided for the electrophoresis.
The catalytic efficiency of each enzyme was calculated based on the Michaelis-Menten kinetic equation.
It is known that, in FIG. 1, the reciprocal of each intercept with the x-axis, multiplied with −1, represents a km value (mmol/L) and the reciprocal of each intercept with the y-axis represents a Vmax value (U/mg), the maximum rate of reaction.
The catalytic ability per molecule of the enzyme (kcat) can be calculated from the Vmax and the molecular weight of the enzyme. Table 5 indicates the result of the calculation of catalytic efficiency (kcat/km), which is an index representing the catalytic ability of an enzyme, based on the obtained kcat and km values.

[5] = 5-hydroxy-L-pipecolic acid-producing activity of McPH mutants (Example 6); assay type: biochemical; details: for Relative activity (5-hydroxy-L-pipecolic acid-producing activity, wild type = 100): Table 10, double and triple mutants
Text: Each of the obtained plasmids was used to transform E. coli (Eschelichia coli) BL21 (DE3) (manufactured by Invitrogen) according to a conventional method and thus to obtain recombinant E. coli strains expressing the respective mutants.
Furthermore, the combination effect of the respective mutations was examined in the mutations corresponding to McPHm2, McPHm3, and McPHm9, each of which was effective to improve the activity. A plasmid expressing a double mutant (McPHm10) with substitutions of phenylalanine to tyrosine at position 5 and cysteine to alanine at position 23, and a plasmid expressing a triple mutant, which is derived from the double mutant and further has a substitution of aspartic acid to glutamic acid at position 282, were constructed. Then, recombinant E. coli strains were produced according to the method described above, and the resulting enzyme solutions were used to evaluate the 5-hydroxy-L-pipecolic acid-producing activity.

[6] = Hydroxylation activity of McPH mutants with L-proline as substrate (Example 6); assay type: biochemical; details: method of Example 4, in words
[7] = Catalytic efficiency (kcat/Km) of L-pipecolic acid hydroxylases with L-pipecolic acid (Example 3); assay type: biochemical; details: in words

Molecule | Relative activity, Substrate: L-proline (hydroxy-L-proline-producing activity, 100 = hydroxy-L-pipecolic acid-producing activity) [1] | hydroxy-L-proline detected from the reaction solution [1] | Accumulation of (4S)-hydroxy-L-proline ([2]; in words) | Accumulation amount of (4S)-hydroxy-L-proline [2] | Accumulation amount of (5S)-Hydroxy-L-pipecolic acid [2] | Accumulation amount of L-pipecolic acid [2] | Conversion of the substrate to (5S)-hydroxy-L-pipecolic acid ([2]; incubation for 120 hours, in words) | Relative activity, Substrate: L-pipecolic acid [3] | hydroxy-L-proline detected from the reaction solution [4] | Activity, Substrate: L-proline (cell spanning Km to kcat/Km) ([4]; in words) | Relative activity (5-hydroxy-L-pipecolic acid-producing activity, wild-type McPH = 100%) ([5]; Table 9, single mutants, U/g-protein basis, method of Example 4) | Relative activity (5-hydroxy-L-pipecolic acid-producing activity, wild type = 100) [5] | Hydroxylation activity with L-proline as substrate [6] | Activity compared with that of the wild-type enzyme ([5]; in words) | Activity, Substrate: L-pipecolic acid (cell spanning Km to kcat/Km) [7]
B1 | 0% | No hydroxy-L-proline was detected | No accumulation of (4S)-hydroxy-L-proline was confirmed | 0 mmol/L | 23.5 mmol/L | 1.8 mmol/L | almost the entire amount of the substrate was allowed to convert to (5S)-hydroxy-L-pipecolic acid | 100% | no hydroxy-L-proline was detected | (No activity ) | 100% | 100 | – | – | –
B2 | – | – | – | – | – | – | – | – | – | – | – | 314 | virtually no activity against proline | three or more times higher | –
B3 | 583% | much amount of hydroxy-L-proline was detected | no accumulation of (4S)-hydroxy-L-proline is confirmed | 0 mmol/L | 0.8 mmol/L | 18.8 mmol/L | – | 100% | much amount of hydroxy-L-proline was detected | – | – | – | – | – | (No activity )
